Positions count from the first letter of the chain named.
B1: 6465-mHvKv-canIgGB (antibody, V domains shown)
VH: EVQLQQSGAELVRPGASVRLSCKASGYSFTNYYLYWVKQRPGQGLEWIGELNPRNGGTNLNAKFKTKATLTVDKSSNTAYMRLSSLTSEDSAVYYCTRGGTTVVVRDVMDFWGQGTSVTVSS
VL: DIELTQSPASLAVSLGQRATISCRASESVDSYGNSFMHWYQQKPGQPPKLLIYRASNLESGIPARFSGSGSRTDFTLTINPVEADDVATYYCQQSNEDPYTFGGGTKLEIKR
B2: B2-H1K1-canIgGB (antibody, V domains shown)
VH: EVQLVESGGDLVKPGGSLRLSCVASGFTFSDAWMDWVRQAPGKGLQWLAEIRSRAESHATYYAESVKGRFTISRDDAKNTVYLQMNSLRAEDTAVYYCTPASTMITTGWFAYWGQGTLVTVSS
VL: EIVMTQTPLSLAVTPGELATISCRASQNISVYLHWYLQKPGQTPRVLIKYVSQSISGVSDRFSGSGSGSDFTLKISRVEAEDVGVYYCQNGHSFPYTFGQGTKLEIKR
B3: B2-H2K1-canIgGB (antibody, V domains shown)
VH: B2 VH with Q46E, L48V, T80M
VL: B2 VL
B4: B2-H3K1-canIgGB (antibody, V domains shown)
VH: B2 VH with L48V
VL: B2 VL
B5: B2-H1K3-canIgGB (antibody, V domains shown)
VH: B2 VH
VL: B2 VL with A12S, T14S, L37Q, T43A, R45K, S59P, D60S, K74T, R77S
B6: B2-H3K3-canIgGB (antibody, V domains shown)
VH: B2 VH with L48V
VL: B2 VL with A12S, T14S, L37Q, T43A, R45K, S59P, D60S, K74T, R77S
B7: B2-H2K3-canIgGB (antibody, V domains shown)
VH: B2 VH with Q46E, L48V, T80M
VL: B2 VL with A12S, T14S, L37Q, T43A, R45K, S59P, D60S, K74T, R77S
B8: B2-H1K2-canIgGB (antibody, V domains shown)
VH: B2 VH
VL: DIVMTQTPLSLSVSPGETASISCRASQNISVYLHWYRQKPGQSPQVLIKYVSQSISGVPDRFSGSGSGSDFTLRISRVEADDTGVYYCQNGHSFPYTFGQGTKLEIKR
B9: B2-H3K2-canIgGB (antibody, V domains shown)
VH: B2 VH with L48V
VL: B8 VL
B10: B2-H2K2-canIgGB (antibody, V domains shown)
VH: B2 VH with Q46E, L48V, T80M
VL: B8 VL
B11: 6465-H3K3-canIgGB (antibody, V domains shown)
VH: EVQLVESGGDLVKPGGSLRLSCVASGYSFTNYYLYWVRQAPGKGLEWVAELNPRNGGTNLNAKFKTRFTISRDNAKNMAYLQMNSLRAEDTAVYYCTRGGTTVVVRDVMDFWGQGTLVTVSS
VL: DIVMTQTPLSLSVSPGEPASISCRASESVDSYGNSFMHWYRQKPGQSPQLLIYRASNLESGVPDRFSGSGSGTDFTLRISRVEADDAGVYYCQQSNEDPYTFGQGTKLEIKR
B12: 6465-H1K1-canIgGB (antibody, V domains shown)
VH: B11 VH with A49G, R72V, N74K
VL: EIVLTQTPLSLAVTPGELATISCRASESVDSYGNSFMHWYLQKPGQTPRLLIYRASNLESGVSDRFSGSGSRTDFTLKISRVEAEDVGVYYCQQSNEDPYTFGQGTKLEIKR
B13: 6465-H2K1-canIgGB (antibody, V domains shown)
VH: B11 VH with E46Q, V48L, A49G, R72V, N74K, M78T
VL: B12 VL
B14: 6465-H3K1-canIgGB (antibody, V domains shown)
VH: B11 VH
VL: B12 VL
B15: B2-mHvKv-canIgGB (antibody, V domains shown)
VH: EVKLVESGGGLVQPGGSMKLSCAASGFTFSDAWMDWVRQSPERGLEWVAEIRSRAESHATYYAESVKGRFTISRDDSKGSVYLQMNSLGTEDTGIYYCTPASTMITTGWFAYWGQGTMVTVSS
VL: NIVMTQSPAILSVTPGDRVSLSCRASQNISVYLHWYQQKSHDSPRVLIKYVSQSISGIPSRFSGSGSGSDFTLRINSVEPEDVGVYYCQNGHSFPYTFGGGTKLEIKR
B16: 7475-mHvKv-canIgGB (antibody, V domains shown)
VH: EVKLVESGEGLVKPGGSLKLSCAASGFTFSSYAMSWVRQTPEKRLEWVAYISNGGDYIFYADTVKGRFTISRDNARNTLYLQMSSLKSEDTAMYYCTRRGHYNTSSYWYFDVWGTGTTVTVSS
VL: DIVMTQSPKSMSMSVGERVTLSCKASENVGTYVSWYQQKPEQSPKLLIYGASNRYTGVPDRFTGSGSATDFTLTISSVQAEDLADYHCGQSYSYPPTFGAGTKLELKR
B17: 7475-H1K1-canIgGB (antibody, V domains shown)
VH: EVQLVESGGDLVKPGGSLRLSCVASGFTFSSYAMSWVRQAPGKGLQWVAYISNGGDYIFYADTVKGRFTISRDNARNTLYLQMNSLRSEDTAVYYCTRRGHYNTSSYWYFDVWGQGTLVTVSS
VL: EIVMTQSPASLSLSQEEKVTITCKASENVGTYVSWYQQKPGQAPKLLIYGASNRYTGVPSRFSGSGSGTDFTFTISSLEPEDVAVYYCGQSYSYPPTFGAGTKVELKR
B18: 7475-H2K2-canIgGB (antibody, V domains shown)
VH: B17 VH with V37I, R76K, S88A
VL: B17 VL with G68A, F73L, L78V
B19: 7475-H2K1-canIgGB (antibody, V domains shown)
VH: B17 VH with V37I, R76K, S88A
VL: B17 VL
B20: 7475-H3K3-canIgGB (antibody, V domains shown)
VH: B17 VH with Y50R, R76K, S88A, V93M
VL: B17 VL with T72S
B21: 7475-H2K3-canIgGB (antibody, V domains shown)
VH: B17 VH with V37I, R76K, S88A
VL: B17 VL with T72S
B22: 7475-H3K1-canIgGB (antibody, V domains shown)
VH: B17 VH with Y50R, R76K, S88A, V93M
VL: B17 VL
B23: 7475-H3K2-canIgGB (antibody, V domains shown)
VH: B17 VH with Y50R, R76K, S88A, V93M
VL: B17 VL with G68A, F73L, L78V
B24: 7475-H1K3-canIgGB (antibody, V domains shown)
VH: B17 VH
VL: B17 VL with T72S
B25: 7475-H1K2-canIgGB (antibody, V domains shown)
VH: B17 VH
VL: B17 VL with G68A, F73L, L78V

The binders below were run against His-tagged canine IL-31 (interleukin 31) recombinant protein (canine) (assay: cell-based or functional assay).

pSTAT IC50 (µg/mL) | Binder
7.1 | B1
9.4 | B2
8.3 | B3
8.5 | B4
9.3 | B5
7.4 | B6
7.1 | B7
9.2 | B8
7.2 | B9
7.8 | B10
7.2 | B11
7.5 | B12
7.3 | B13
7.8 | B14
6.8 | B15
6.7 | B16
8.4 | B17
7.1 | B18
7.9 | B19
6.9 | B20
7.2 | B21
7.5 | B22
7.8 | B23
8.2 | B24
8.1 | B25

What follows are binders tested against His-tagged canine IL-31 (interleukin 31) recombinant protein (canine) (assay: BLI (Gator), biotinylated antibody on streptavidin probe, canine IL-31 as analyte).

Kd [nM] | koff [s⁻¹] | kon [M⁻¹ s⁻¹] | Binder
2.09 | 0.00106 | 507000 | B1
17.2 | 0.0013 | 75600 | B2
10 | 0.000942 | 93800 | B3
10.2 | 0.00114 | 112000 | B4
16.7 | 0.0015 | 89800 | B5
3.16 | 0.000381 | 121000 | B6
1.53 | 0.000143 | 93500 | B7
13.8 | 0.00115 | 82800 | B8
1.76 | 0.000188 | 107000 | B9
9.17 | 0.000882 | 96200 | B10
2.02 | 0.00164 | 812000 | B11
3.21 | 0.000979 | 305000 | B12
3.37 | 0.00171 | 508000 | B13
5.75 | 0.00121 | 211000 | B14
3.04 | 0.000243 | 79900 | B15
1.01 | 0.000251 | 250000 | B16
6.73 | 0.00156 | 231000 | B17
3.61 | 0.000481 | 133000 | B18
5.43 | 0.00055 | 101000 | B19
3.34 | 0.00204 | 611000 | B20
4.67 | 0.000759 | 162000 | B21
4.84 | 0.000542 | 112000 | B22
5.4 | 0.000539 | 100000 | B23
6.51 | 0.00192 | 295000 | B24
6.37 | 0.000614 | 96500 | B25
